Measured values as given in PMC6559660.

Experiments:
[1] = molecular target: N-acetylneuraminate lyase from Aliivibrio salmonicida LFI1238, construct with TEV-cleavable N-terminal His6-tag (Aliivibrio salmonicida LFI1238); assay: SEC; Superdex 200 prep grade HiLoad 16/60 in 50 mM Tris-HCl pH 7.5, 500 mM NaCl, 5 mM beta-ME, 10% glycerol; room temperature
[2] = molecular target: N-acetylneuraminate lyase from Aliivibrio salmonicida LFI1238, construct with TEV-cleavable N-terminal His6-tag (Aliivibrio salmonicida LFI1238); assay: native gel or EMSA; native PAGE of purified AsNAL (2.75 ug) beside NativeMark unstained protein standard
[3] = molecular target: N-acetylneuraminate lyase from Aliivibrio salmonicida LFI1238, construct with C-terminal His6-tag (Aliivibrio salmonicida LFI1238); assay: crystal structure; crystals from 25% PEG 1.5 K and 20% glycerol; space group I222, one molecule in the asymmetric unit; tetramer generated by crystallographic symmetry; 1.65 A

| stoichiometry N [1] | stoichiometry N [2] | stoichiometry N [3] | Substance |
| --- | --- | --- | --- |
| 4 | 4 |  | N-acetylneuraminate lyase from Aliivibrio salmonicida LFI1238, construct with TEV-cleavable N-terminal His6-tag (enzyme) |
|  |  | 4 | N-acetylneuraminate lyase from Aliivibrio salmonicida LFI1238, construct with C-terminal His6-tag (enzyme) |
